Measurements from the DeepSol protein solubility set.

Experiment: soluble on expression in E. coli; label from the status in PepcDB or PDB records

| Sequence | soluble on expression in E. coli |
| --- | --- |
| MSDDDSSHDLPAANLQQLRLPDSASLRPAFSTHRPRILILYGSLRTVSYSRLLAEEARRLLEFFGAEVKVFDPSGLPLPDAAPVSHPKVQELRELSIWSEGQVWVSPERHGAMTGIMKAQIDWIPLSTGSIRPTQGKTLAVMQVSGGSQSFNAVNQMRILGRWMRMITIPNQSSVAKAFQEFDANGRMKPSSYYDRVVDVMEELVKFTLLTRDCSAYLTDRYSERKESAAELEHRVTLKSVHHHHHH | soluble |
| MSDDGSDTSFEEPHGDFDYTLLFEKFNKEVPKMEEVMKAAKKFGASHRHLINKFILEPSMSAKKMNLMFAKHLTTAIWKRHPDTVMQIQTNREEARQLSKLIVKTMNDDEGKGPKPFRPWRFVISTDEKSPTEFVTMTGCGRNSSVISEASDLTKVERALLLVILEEMISSDGTVQMDWVHSQIRHEPCKMPGPKCDIFMAKMMRQRYFLMTDENEVAEITPRILVELEPWLRAKFTGDLKTCELCRKIISRSVYTAECQKCHALCHFNCFKNATIISHQDNVECQKCNQNLSLNEVLKQIDTKKATGVPRSRDTVARSPSPDSDVPKAPSRTQRAKSKSKTPAPVDSDDDMTITPRPTRGKRNQRVPDSDSE | not soluble |
| MSDKKVFILSGARTPIGAYRGSFANFGAVELGTVAAKAAIERSGVAPEKIEEVIGGCVLPAGLGQNVTRQISLSAGLPVTTQAVTVNKVCSSSMKALVTAAVEIKAGYYDTILVVGTENMSQVPFYVPRGEIPFGGIQMTDGISKDGLEDIKEKGPMGLCAEKTVKDYGITREEQDAYAIESYKKASNAWSSEKFSEEVVPVSVKTSRSEVVITEDEEYKKLIESKVSSLKPVFVRDGTGTITPANASSLNDGAVATVVVGENALPQGAHPLAELVAFAEAGRAPIDFTVAPVDAVRLLLKKSGLQVSDIALWELNEAFAVTVLAFIKELNIEPSVVNVKGGAVAIGHPLGMSGLRIVNSLAYSLAPGQLGVAAICNGGGEATAVLIKKL | not soluble |
| MSDKNQIAARASLIEQLMSKRNFEDLGNHLTELETIYVTKEHLQETDVVRAVYRVLKNCPSVALKKKAKCLLSKWKAVYKQTHSKARNSPKLFPVRGNKEENSGPSHDPSQNETLGICSSNSLSSQDVAKLSEMIVPENRAIQLKPKEEHFGDGDPESTGKRSSELLDPTTPMRTKCIELLYAALTSSSTDQPKADLWQNFAREIEEHVFTLYSKNIKKYKTCIRSKVANLKNPRNSHLQQNLLSGTTSPREFAEMTVMEMANKELKQLRASYTESCIQEHYLPQVIDGTQTNKIKCRRCEKYNCKVTVIDRGTLFLPSWVRNSNPDEQMMTYVICNECGEQWYHSKWVCW | soluble |
| MSDLADNAIDAARQENVARILEAAERLFRHYGYAKTNVADIARELDMSPANIYRFFASKTEIHQTLCLRMLGASYQQALEIAHLPLSASERLRRYALGQHKLTVETMLDEQKVHEMVVVAIERDWHVIEKHISRLDDLLAGIIREGIEAGEFADVDPAVAARCFGASLVTLCHPQIVAQCLAKENRATPDELVEFAIRALKK | soluble |
| MSDQQQPPVYKIALGIEYDGSKYYGWQRQNEVRSVQEKLEKALSQVANEPITVFCAGRTDAGVHGTGQVVHFETTAQRKDAAWTLGVNANLPGDIAVRWVKAVPDDFHARFSATARRYRYIIYNHRLRPAVLSKGVTHFYEPLDAERMHRAAQCLLGENDFTSFRAVQCQSRTPWRNVMHINVTRHGPYVVVDIKANAFVHHMVRNIVGSLMEVGAHNQPESWIAELLAAKDRTLAAATAKAEGLYLVAVDYPDRYDLPKPPMGPLFLAD | soluble |
| MSDSIQERYLVGYALAAKKQHSFIQPSLIEHSRQRGIDLVKLDPTKSLLEQGKLDCIIHKLYDVYWKENLHEFREKCPGVPVIDLPEAIERLHNRVSMLEVITQLRFPVSDSERFGVPEQVVVMDSSVLSGGGALGELKFPVIAKPLDADGSAKSHKMFLIYDQEGMKILKAPIVLQEFVNHGGVIFKVYVVGDHVKCVKRRSLPDISEEKIGTSKGSLPFSQISNLTAQEDKNIEYGEDRSLEKVEMPPLSFLTDLAKAMRESMGLNLFNFDVIRDAKDANRYLIIDINYFPGYAKMPSYEPVLTEFFWDMVTKKNHV | soluble |
| MSDSVSDAQAQSTPEGAQQKPILRVVKGNPDPTQVATLTALFASMADNAAQQSKQERERNLWGNVEERLQRPTTYNPTAFRNVSFF | not soluble |
| MSDVEKKSETQEAAPKKKPYNLREKKEKKAAYRSLIRAELADELYDKILNIVVVQKKYKDPNYSAKDLAKELKTNTRYLSAVVNSRFGMNYSCLLNEYRIKDALHLLVDKRYMDKNVEEISAMVGFANRQSFYAAFYKNVGETPNGYRKRNQEKK | not soluble |
| MSDVKSVIESGRAVLGIEFGSTRIKAVLIGEDHAPIATGAHDWENMLVDGIWTYSLDMIWEGISDCYSKMAQDAKEKYGVTIKKLAAIGISGMMHGYLPFDEEDNLLVPFRTWRNTITGEAAAELTEVLGFNIPQRWSIAHLYQAILNKEEHVSKISYFTTLAGYIHWQLTGEKVMGVGEASGMFPIDSKTRDYDAAMLDKFAALDKVKEYPWDIRDILPKVLTAGEKAGTLTEEGAKRLDVSGNLESGILLAPPEGDAGTGMVATNSVAVRTGNVSAGTSVFAMVVLEKALKAVHEELDMVTTPSGDAVAMVHCNNCTSDLNAWVGLFKEFSELFGMDIDMNDIYGKLYNNALTADKDCGGLVAFNLFSGEPVIGLNEGRPMFARKPDARMNLANFMRTHLYASLATLKIGCDILFKEEKVKVDTLYGHGGLFKTKGVGQSILAAAMDAPVAVMETAGEGGPWGMAVLAAYMVNKADGEPLEKYLSDRVFNGEKGIVMQPDPDDVKGFDEYINTYKAAIEAERAMVKALPLLEHHHHHH | soluble |
| MSEAVKLDVGGTIFKTSKSTLTKFDGFFRTMLGSGIGLNVDESGCIFIDRSPKHFDLILNFMRDGCLALPKNERDLTELMAEAQYYLLDGLIDRLASSNWSVESDEKTINVAKRLPILENNSQFLQVLCNQEKPILLIVVMASRDHFFPNMSIPDGFNAYKFVEKYSHQFHIYFMSTFVAQFLTIRVKRNNKIVYLKRAAYVSSGQQE | not soluble |
| MSEDNFDDEFDGSLPSGPRHPMARRFRGYLPVVVDVETGGFNSATDALLEIAATTVGMDEKGFLFPEHTYFFRIEPFEGANIEPAALEFTGIKLDHPLRMAVQEEAALTEIFRGIRKALKANGCKRAILVGHNSSFDLGFLNAAVARTGIKRNPFHPFSSFDTATLAGLAYGQTVLAKACQAAGMEFDNREAHSARYDTEKTAELFCGIVNRWKEMGGWMDDDD | soluble |
| MSELIKHSSNFLAAISPDNDCSITATNDFEAMMSWLNGYKKKPINTSRNYAREVKRYLIWLSCQGLTLAQVKIEDVYEYFNLLERPTTEWIIPDKKTDKIYPTQLIKYGGLSNRSINYTHTVLGLFYSFLQDAGYLTKNPINLVKKALEHHHHHH | not soluble |
| MSENMVNLPDSLYEDYSKLKLTSPSNASSSSSAPPPRLSVVAHPTVEMIIQWVCDIHKPKSYMSDFALHNLAYHRNDFEFLPSLLWESKNTVYIMLQEVFEAYRHLAGHISLRLFPHPLNPLRVYNVFLLFQSMACHPDTSRQFLRAKMPNYFYPLMDTGLIDKSDECMRLAALGVIAHMLKASEDGAVNRYLMESGVVGFCVKPIEFGSTETKKVALYILDKIMSTDQGLYYCCVLADRFYVIDELLKKVLFYLSNMVRPPSSLFSLVTGCYVKLSQNSRARNGIRRYTPFLLFDGTFSRLYAEDPVAANNRIQLLQNLDN | soluble |
| MSENSNQFLDALKQMQGVEVGDIVDVEVLDVEDGQIDVGVENAGVEGVITRREYTSDRNADLRDLVKPGDKFKALVLRRAGGDKENGEFFFSVTRLKEREAFDKLQKDFEEGNAIEGTVTSSVRGGLLVDVGTRGFLPASLISNRYVSDLKPYIGKTMKLKITEIDPNKNRLILSHKDLVEEEREEAFDKVASQLVVGDVVEGKVSRLTNFGSFIDVGGVDGLVHISEISYKHVDKPSDVLKVGQDVKVKVIGIDNDRHRISLSIKQTEPSPFEQATADLNEGDIFEGEVKSLTNFGAFVEVADGIQGLVHVSEISNKHVDKPSDVLKVGQTVKVKVLNIDPNDRRISLSIKAADSNSSSSDNHNSRPRRSRNENTVNKKYMSDNDNGFALGDIIGDQLKDRKLEHHHHHH | soluble |
| MSEPLLEVKNLKTYFPIKGGIFSRTVGHVKAVDGVSFTIKKGEVFGLVGESGSGKTTIGKTILRLVQKTEGEVKFKGHDVHSLSKEELRKHRPNMQLVFQDPFSSLNPRMRIGEALGEPMLAHGLATKENVREKVTEVLELCGLAPYHIDRYPHEFSGGQRQRIVIARAMVLNPEFIVADEPVAALDVSIQAQIINLFSELQEKKGLSYLFISHDLSVVEHLCTKIGIMYLGTIVETAPRDELFTNPLHPYTKALLSAVPIPDPTVKRERIILEGDIPSPANPPSGCCFHTRCPFATDICKQTGNSVMLVKSTLLLVIMYKREGLFQKLKESFFIY | not soluble |
| MSEQKTIRFIITRQDTADSTPYDEEFEIPYRPNLNVISALMEIRRNPVNVKGEKTTPVTWDMNCLEEVCGACSMVINGKPRQSCTALIDQLEQPIRLKPMKTFPVVRDLQVDRSRMFDSLKKVKAWIPIDGTYDLGPGPRMPEKRRQWAYELSKCMTCGVCLEACPNVNSKSKFMGPAPMSQVRLFNAHPTGAMNKSERLEALMDEGGLADCGNSQNCVQSCPKGIPLTTSIAALNRDTNLQAFRNFFGSDRV | not soluble |
| MSEQLNADRPKTRRKEPAGRGSASEQKILAAAKELFLADRYDGVNLERIAARAGVSRQTVYNRFGSKETVFREMVRHHWSAFAGPGRDIAECGPDASAEEVLRGFAQSLQRFATETDQIRFAQLVVTESARLPWIADEFYRLGKGPVVVTFADCLDSLVRRGLLRCPDTHLAARQFTGLVQEFLVWPRVMAFEEEVAGQAPPEVVIEEAVLTFLARYAPAADGPGQSV | not soluble |
| MSEQQPNLRERRRSETRRLVQAHAVRLFTDHGYDAVTVADVAEAAGVSAMTVYRHFPTKEDLVLIDQPAQLIAEHVAASSAAQPLVRRVGSALIDAATNWTGGNGDEQAANERFLLDCLRLMVSTPALRARHLDSQYALQQAIVDALGDDATGPDAAFRAQAATSACIAAMHTALTRWVEDDGHTKLPDLIARALTASFGDDAVATRRKG | not soluble |
| MSEQVYSGVDQDEDGGLTPLGRIVIDAWVFGILPESEMCTGWSMSQMQNLYEEVYAAWGPYAHLPSRLPPELQQRHSFFYSQRITVAKNNGWDTDLSDES | not soluble |
| MSERPVHEYIKELSEALVQLSDKVLQNFNEALYAVTHKDVQSARKIRIVDDEIDQTEVKLEERCLAFLALQQPVARDLRTMVTIIKINDDLERIGDLAVHIIERMPALGHEVMERYQFEKMGNLSATMVRKAIEAFVTRDRLLADNVCAMDEDVDAMHRMIFKKVADAMKACNTDTEQLLAVLSVSRYIERMADHATRIAREVIYLVTGEIVRHSDDTFEKLIQSLKD | soluble |
| MSERQSKYFDYQGIVISSTGQDNQDSETDLVYLIQAHGKAAPKNIMYGVSKCAFVPTNLERNFDNIEEAKNLERRSKIPLKFGEVILWNESDCDHDKRIILHIKREKPIYEASSSRNGLILKVGGVIQPTSTTSFWTPLCTVTMPETEATRAEPDVWLYAWIRFETTMKSGLDPFNMTATFESFDSCDPSDQARVCEAPWNAGSPDSKFGVWRPDPKPADSDDEIDIEPREGWHLPEDKWAEVIKMQLGLYVGERLLICKELSQFDFIIPLQKPFSRGTDKTLIYPAVGEYFHFSAIWSMQHNGFLIYELQPVPLLRQHVTSVNGNLLTRVVPASIRGLFVDKEGTLGLIDDPHHLLSFFEFHPAGYEFLKAMAEVRAVRTSENKSVRYRIVRTSGMSIFENWLRDTQFVVGPVKGIRINEDTVICAKHPNVYFKIPNNLKEGIPIGGGVQFVGKRQAGVDSEIMITECSPCPAFTCKNYSVSGDTRLFQVYLKPNCDHEQLAESDSMGFVDFRELETPCRGKFLAWVRESITVNDCRRAATIMEVCSTAICPPLIAMSANSSRATSARTTPAGSSIGSRSSIQSRASAATSVSSNRFVGPSSRRTPSGTPQSSTSSRV | not soluble |
